The source of these data is patent publication US12029792B2, “Stereocomplexes for the delivery of anti-cancer agents” (priority 2018, dated 2024).

The nature of series [1]: In vitro release of DM1 by dialysis with or without GSH. The series is classed as physicochemical. The procedure: The release of poly-DM1 was performed by dialysis in phosphate buffered saline (pH 7.4, containing 0.2% w/v polysorbate 80) with or without 10 mM glutathione (GSH). Briefly, 1 mL of the poly-DM1 formulation with the concentration of DM1 adjusted to 0.5 mg/mL by PBS was placed in a dialysis bag (MWCO=3.5k Da), which was sealed. After being immediately immersed in 10 mL release medium, the sample was incubated at 37° C. At scheduled time intervals (4, 8, 24, 48 h), 1 mL of the external release medium was taken out and replenished with an equal volume of fresh medium. All released samples were freeze-dried and the amount of released DM1 was determined using HPLC measurements as described previously.
Release of DM1 from the stereocomplex over time, with and without glutathione (GSH) was measured at pH 7.4; results are presented in FIG. 16B. DM1 is released from the isolated prodrug most quickly in the presence of GSH (squares) and more slowly from the stereocomplex (circles). In the absence of glutathione, DM1 is essentially not released from either the isolated prodrug or the complex (triangles and inverted triangles at 0% cumulative release). Thus, conjugation of DM1 with a redox-sensitive disulfide linker prohibits premature release of DM1 without GSH.

Series [2] deals with MiA PaCa-2 pancreatic tumor. As to the kind of experiment: Subcutaneous MiA PaCa-2 pancreatic tumor model. Particulars: four injections for D-DM1, two injections for the stereocomplex. It counts as in vivo, mice. The procedure:
In vivo antitumor efficacy of the complex was assessed in a subcutaneous MiA PaCa-2 pancreatic tumor model. MiA PaCa-2 cell suspensions were injected subcutaneously on the backs of mice to establish the tumor model. When tumor volume reached approximately 140 mm^3, groups of tumor bearing mice (n=5) were injected through the tail vein on day 1 and day 14 of an approximately 40-day trial.
Antitumor efficacy and toxicity for the stereocomplex and DM1-containing prodrug were assessed in a subcutaneous MiaPaCa-2 pancreatic tumor model. MiA PaCa-2 cell suspensions were injected subcutaneously on the backs of mice to establish the tumor model. When tumor volume reached approximately 140 mm^3, groups of tumor-bearing mice (n=5) were injected with treatment through the tail vein.

The nature of series [3]: Tolerance of formulations in mice without tumors. The series is classed as in vivo. The settings on record: healthy mice, tail vein days 1, 8, 15, 22. The procedure:
Healthy mice (n=5 for each treatment group) were injected on days 1, 8, 15, and 22 of a 28-day trial in the tail vein with either the DM1-containing prodrug at 4 mg/kg, the DM1-containing prodrug plus mPEG-PLLA at 4 mg/kg, or the stereocomplex with 4 mg/kg DM1 and 27 mg/kg DTX per injection and body weight was monitored to determine tolerance of the treatments. […] Healthy mice (n=5 for each treatment group) were injected with complex at 3.6 mg/kg DM1 once/week for total three injections, at 5 mg/kg DM1 once/two weeks for total two injections and at 7 mg/kg DM1 only once, respectively.

The subject of the next series is CNE nasopharyngeal tumor. Put plainly: Subcutaneous CNE nasopharyngeal tumor model. It counts as in vivo, mice. The settings on record: four injections once per week; 4 mg/kg DM1 (complex also 26 mg/kg DTX). The procedure: Antitumor efficacy and toxicity for the stereocomplex and DM1-containing prodrug were assessed in a subcutaneous CNE nasopharyngeal tumor model when the treatment is delivered via intravenous injection. Cell suspensions were injected subcutaneously on the backs of mice to establish the tumor model. When tumor volume reached approximately 100 mm^3, groups of tumor bearing mice (n=5) were injected with the complex through the tail vein.

Regarding mPEG-PDLA-SS-DM1 [D-DM1], the “cumulative release of DM1” value in series [1] (pH 7.4, in the absence of glutathione) was found to be 0%. Further, the “Release of DM1 over time” value in series [1] (pH 7.4, in the presence of GSH (10 mM)) is listed as “most quickly”. Also, in series [2], the “antitumor effect (tumor volume)” value is “almost the same antitumor effect”; the “toxicity: mouse death and body weight” value was “induced mouse death and obvious body weight decrease”. The “tail swelling and ulceration” value in series [3] (4 mg/kg DM1) is “two mice showed tail swelling and ulceration on days 8-14”. For the same substance, in series [3] (4 mg/kg DM1 (stereocomplex also 27 mg/kg DTX), 28-day trial), the Body weight result was “increased slightly”. Further, in the series with CNE nasopharyngeal tumor, the tumor volume result was “tumor volume increased significantly”.
